From the supplement of paper PMC10065799, “High-throughput profiling of sequence recognition by tyrosine kinases and SH2 domains using bacterial peptide display” (eLife, 2023)

Tests used:
c-Src SH2 = experiment: SH2 binding enrichment of the phosphorylated peptide, bacterial display (enrichment ratio); higher = better substrate or ligand; peptides without Tyr show the background
SHP2-C SH2 = experiment: as above
Grb2 SH2 = Grb2 SH2 (UniProt P62993); experiment: as above
Fyn = Fyn (UniProt P06241); experiment: phosphorylation enrichment, bacterial display (enrichment ratio); higher = better substrate or ligand; peptides without Tyr show the background
Fes = Fes (UniProt P07332); experiment: as above
AncSZ = experiment: as above
c-Src = experiment: as above
FGFR1 = FGFR1 (UniProt P11362); experiment: as above
c-Abl (mouse) = experiment: as above
EPHB2 = EPHB2 (UniProt P29323); experiment: as above
Sequence of EPHB2 (P29323 whole entry, looked up): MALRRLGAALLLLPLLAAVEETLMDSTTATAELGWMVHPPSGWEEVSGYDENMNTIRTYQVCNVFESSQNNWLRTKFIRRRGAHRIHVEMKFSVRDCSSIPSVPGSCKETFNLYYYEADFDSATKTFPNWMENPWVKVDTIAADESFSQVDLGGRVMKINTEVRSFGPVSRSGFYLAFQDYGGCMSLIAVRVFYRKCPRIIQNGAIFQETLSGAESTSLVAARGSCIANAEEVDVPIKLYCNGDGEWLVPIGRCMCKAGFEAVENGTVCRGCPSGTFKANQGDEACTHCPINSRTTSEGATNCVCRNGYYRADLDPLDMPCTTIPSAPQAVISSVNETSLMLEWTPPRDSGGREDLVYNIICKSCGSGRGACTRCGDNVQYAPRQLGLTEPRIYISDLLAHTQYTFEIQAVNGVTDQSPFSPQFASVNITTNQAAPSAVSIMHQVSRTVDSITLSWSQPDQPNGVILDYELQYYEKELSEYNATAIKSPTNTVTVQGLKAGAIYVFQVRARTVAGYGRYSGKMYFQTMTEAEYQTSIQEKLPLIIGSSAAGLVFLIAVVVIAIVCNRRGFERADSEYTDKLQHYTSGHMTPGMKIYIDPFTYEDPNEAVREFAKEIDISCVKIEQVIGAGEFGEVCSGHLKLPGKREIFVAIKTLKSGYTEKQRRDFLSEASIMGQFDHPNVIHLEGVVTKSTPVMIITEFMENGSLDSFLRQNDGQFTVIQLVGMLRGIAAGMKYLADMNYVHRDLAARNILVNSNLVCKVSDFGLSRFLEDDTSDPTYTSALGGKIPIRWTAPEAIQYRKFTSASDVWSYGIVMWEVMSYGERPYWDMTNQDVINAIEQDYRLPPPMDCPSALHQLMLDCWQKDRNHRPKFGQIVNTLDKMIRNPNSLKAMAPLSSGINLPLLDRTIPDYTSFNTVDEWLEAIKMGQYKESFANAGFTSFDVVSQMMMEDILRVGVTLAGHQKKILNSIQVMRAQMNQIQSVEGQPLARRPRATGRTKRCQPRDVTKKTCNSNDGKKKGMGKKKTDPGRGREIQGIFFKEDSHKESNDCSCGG

MERTK = MERTK (UniProt Q12866); experiment: as above
Fer (mouse) = experiment: as above
Jak2 = Jak2 (UniProt O60674); experiment: as above
Sequence of Jak2 (O60674 whole entry, looked up): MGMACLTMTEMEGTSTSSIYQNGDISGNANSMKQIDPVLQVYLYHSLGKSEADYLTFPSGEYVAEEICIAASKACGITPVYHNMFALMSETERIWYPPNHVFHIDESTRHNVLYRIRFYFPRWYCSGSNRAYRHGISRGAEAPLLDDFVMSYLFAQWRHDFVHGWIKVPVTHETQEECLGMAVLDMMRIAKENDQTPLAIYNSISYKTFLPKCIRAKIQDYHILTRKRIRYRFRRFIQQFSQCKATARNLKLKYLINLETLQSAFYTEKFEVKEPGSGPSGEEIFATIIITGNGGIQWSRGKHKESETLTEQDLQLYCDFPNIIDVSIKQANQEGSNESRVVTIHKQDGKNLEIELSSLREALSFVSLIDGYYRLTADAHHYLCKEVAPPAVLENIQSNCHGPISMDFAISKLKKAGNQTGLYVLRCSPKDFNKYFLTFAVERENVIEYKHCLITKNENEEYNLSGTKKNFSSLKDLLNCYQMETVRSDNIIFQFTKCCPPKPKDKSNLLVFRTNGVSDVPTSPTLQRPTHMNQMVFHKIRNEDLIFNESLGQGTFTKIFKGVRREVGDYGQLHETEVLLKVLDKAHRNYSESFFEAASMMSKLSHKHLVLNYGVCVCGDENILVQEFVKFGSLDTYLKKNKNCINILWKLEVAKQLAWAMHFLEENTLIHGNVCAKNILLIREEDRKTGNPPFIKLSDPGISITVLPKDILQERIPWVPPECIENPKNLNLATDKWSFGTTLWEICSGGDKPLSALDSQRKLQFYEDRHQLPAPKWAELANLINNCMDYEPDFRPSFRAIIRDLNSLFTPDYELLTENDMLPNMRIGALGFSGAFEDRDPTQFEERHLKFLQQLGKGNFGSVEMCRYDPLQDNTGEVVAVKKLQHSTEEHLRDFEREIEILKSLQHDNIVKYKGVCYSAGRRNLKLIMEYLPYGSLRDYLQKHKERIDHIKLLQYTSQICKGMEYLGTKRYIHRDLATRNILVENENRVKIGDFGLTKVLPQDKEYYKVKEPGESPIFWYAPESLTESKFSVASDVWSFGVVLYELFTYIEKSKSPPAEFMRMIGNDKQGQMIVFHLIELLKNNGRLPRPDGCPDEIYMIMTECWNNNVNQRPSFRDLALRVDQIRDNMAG

EPHB1 = EPHB1 (UniProt P54762); experiment: as above
Sequence of EPHB1 (P54762 whole entry, looked up): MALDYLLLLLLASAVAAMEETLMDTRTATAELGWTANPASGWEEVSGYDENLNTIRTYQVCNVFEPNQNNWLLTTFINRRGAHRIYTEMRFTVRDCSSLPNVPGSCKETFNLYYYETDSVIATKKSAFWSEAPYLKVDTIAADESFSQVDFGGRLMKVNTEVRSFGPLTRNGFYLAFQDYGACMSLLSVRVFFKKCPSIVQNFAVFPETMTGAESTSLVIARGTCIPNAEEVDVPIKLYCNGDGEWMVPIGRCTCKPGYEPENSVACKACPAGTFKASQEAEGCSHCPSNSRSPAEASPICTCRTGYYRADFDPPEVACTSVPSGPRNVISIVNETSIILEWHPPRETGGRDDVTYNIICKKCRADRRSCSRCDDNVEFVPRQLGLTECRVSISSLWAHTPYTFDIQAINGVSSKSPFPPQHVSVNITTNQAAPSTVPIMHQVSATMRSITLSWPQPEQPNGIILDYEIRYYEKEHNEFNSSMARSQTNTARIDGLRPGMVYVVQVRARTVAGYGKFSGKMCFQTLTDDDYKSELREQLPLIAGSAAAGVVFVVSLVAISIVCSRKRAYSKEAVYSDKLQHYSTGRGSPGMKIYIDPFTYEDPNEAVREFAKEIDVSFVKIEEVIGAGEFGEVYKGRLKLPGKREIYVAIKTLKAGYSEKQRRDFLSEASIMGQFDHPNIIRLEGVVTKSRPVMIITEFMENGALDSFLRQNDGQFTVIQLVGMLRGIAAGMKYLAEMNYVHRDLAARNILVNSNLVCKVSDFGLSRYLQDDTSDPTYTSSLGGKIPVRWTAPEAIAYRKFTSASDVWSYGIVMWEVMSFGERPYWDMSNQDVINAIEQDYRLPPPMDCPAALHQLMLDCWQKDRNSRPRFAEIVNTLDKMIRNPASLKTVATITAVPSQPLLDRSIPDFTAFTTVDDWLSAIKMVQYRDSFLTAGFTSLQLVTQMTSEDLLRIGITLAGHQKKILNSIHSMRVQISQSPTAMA

FGFR3 = FGFR3 (UniProt P22607); experiment: as above
Sequence of FGFR3 (P22607 whole entry, looked up): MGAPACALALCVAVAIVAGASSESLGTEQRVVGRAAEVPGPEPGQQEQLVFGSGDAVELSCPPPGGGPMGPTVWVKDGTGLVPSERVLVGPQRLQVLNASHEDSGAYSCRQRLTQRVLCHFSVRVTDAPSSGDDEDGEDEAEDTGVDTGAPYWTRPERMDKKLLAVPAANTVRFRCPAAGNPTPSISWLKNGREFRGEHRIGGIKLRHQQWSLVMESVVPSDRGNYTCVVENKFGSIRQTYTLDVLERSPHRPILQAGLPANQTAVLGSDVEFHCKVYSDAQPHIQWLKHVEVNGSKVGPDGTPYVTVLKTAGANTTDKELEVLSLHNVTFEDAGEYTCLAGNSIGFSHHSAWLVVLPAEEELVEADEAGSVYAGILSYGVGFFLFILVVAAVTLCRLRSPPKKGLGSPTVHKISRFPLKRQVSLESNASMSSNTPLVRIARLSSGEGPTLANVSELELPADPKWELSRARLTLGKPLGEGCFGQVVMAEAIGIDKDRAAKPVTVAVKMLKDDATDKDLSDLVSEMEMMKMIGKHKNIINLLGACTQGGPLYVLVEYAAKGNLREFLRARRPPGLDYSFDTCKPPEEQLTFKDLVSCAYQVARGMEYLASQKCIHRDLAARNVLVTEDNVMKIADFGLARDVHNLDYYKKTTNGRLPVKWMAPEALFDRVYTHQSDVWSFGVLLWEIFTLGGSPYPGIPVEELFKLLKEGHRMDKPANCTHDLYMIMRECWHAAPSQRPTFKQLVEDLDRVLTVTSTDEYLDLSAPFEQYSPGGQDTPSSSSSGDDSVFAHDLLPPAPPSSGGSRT

Hck = Hck (UniProt P08631); experiment: as above
Sequence of Hck (P08631 whole entry, looked up, the tested form may be a part): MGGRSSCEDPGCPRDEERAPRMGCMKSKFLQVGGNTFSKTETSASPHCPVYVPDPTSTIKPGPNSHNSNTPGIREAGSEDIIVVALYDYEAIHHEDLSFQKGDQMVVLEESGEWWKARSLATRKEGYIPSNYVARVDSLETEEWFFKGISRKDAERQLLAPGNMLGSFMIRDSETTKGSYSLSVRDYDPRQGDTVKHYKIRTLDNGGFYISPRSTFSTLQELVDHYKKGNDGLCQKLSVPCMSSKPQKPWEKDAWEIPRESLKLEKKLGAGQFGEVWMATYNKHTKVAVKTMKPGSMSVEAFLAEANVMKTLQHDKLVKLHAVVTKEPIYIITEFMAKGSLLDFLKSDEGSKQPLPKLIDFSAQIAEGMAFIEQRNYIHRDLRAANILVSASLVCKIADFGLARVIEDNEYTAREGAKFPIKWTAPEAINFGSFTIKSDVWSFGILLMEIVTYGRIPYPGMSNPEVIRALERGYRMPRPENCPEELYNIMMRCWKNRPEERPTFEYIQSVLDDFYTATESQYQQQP
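For SH2 binding enrichment of the phosphorylated peptide, bacterial display in this document: peptide library displayed on the E. coli surface as eCPX fusions, selected cells deep-sequenced, score is each peptide's frequency after selection divided by its frequency in the input.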
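For phosphorylation enrichment, bacterial display in this document: 11-residue human phosphosite peptides and single-mutation variants displayed on the E. coli surface, counted by deep sequencing, each peptide's frequency after selection divided by its frequency in the unselected input library; frequency after pTyr selection over input frequency; kinase dosed for 20-30% of maximal phosphorylation in three min.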

Sequence of Grb2 SH2 (P62993 whole entry, looked up): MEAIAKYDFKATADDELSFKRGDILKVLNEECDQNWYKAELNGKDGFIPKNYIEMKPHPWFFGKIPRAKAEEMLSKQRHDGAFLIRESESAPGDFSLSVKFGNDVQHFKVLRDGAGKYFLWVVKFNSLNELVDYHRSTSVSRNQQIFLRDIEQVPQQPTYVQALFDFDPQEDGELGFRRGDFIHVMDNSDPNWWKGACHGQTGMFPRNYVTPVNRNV

Sequence	SH2 binding enrichment (c-Src SH2)	SH2 binding enrichment (SHP2-C SH2)	SH2 binding enrichment (Grb2 SH2)	phosphorylation enrichment (Fyn)	phosphorylation enrichment (Fes)	phosphorylation enrichment (AncSZ)	phosphorylation enrichment (c-Src)	phosphorylation enrichment (FGFR1)	phosphorylation enrichment (c-Abl (mouse))	phosphorylation enrichment (EPHB2)	phosphorylation enrichment (MERTK)	phosphorylation enrichment (Fer (mouse))	phosphorylation enrichment (Jak2)	phosphorylation enrichment (EPHB1)	phosphorylation enrichment (FGFR3)	phosphorylation enrichment (Hck)
QKPLGYYRVNL [GALE_Y104_D103G]	0.961	1.3	1.27	0.528	0.641	0.667	0.386	0.636	0.455	0.482	0.516	0.51	2.37	0.445	0.826	0.497
QLCVNYPGGFT [PROS1_Y259_YF]	0.538	0.613	0.73	0.675	1.61	1.45	0.37	0.698	0.835	0.697	0.552	0.692	0.907	0.792	0.904	0.85
QLHEHCKIHKE [NSMAF_Y626_Y626C]	0.945	1.15	1.37	0.633	0.612	0.682	0.724	0.745	0.728	0.422	0.629	0.522	0.666	0.343	0.651	0.649
QLPATCMNLGP [MST1R_Y1360_Y1360C]	0.539	0.439	0.822	0.817	1.2	1.29	0.632	0.615	1.06	0.683	0.533	0.621	1.14	0.668	0.913	0.554
QLPATYMNLGP [MST1R_Y1360]	1.92	1.46	11	0.706	0.747	0.547	1.23	0.766	0.87	0.548	6.84	0.406	1.42	2.99	0.616	0.741
QMEKIYTQQIQ [CCNB1IP1_Y125]	0.478	0.398	0.807	0.663	1.06	1.12	1.55	0.673	1.03	0.466	1.19	0.651	1.07	0.747	0.5	0.628
QMVGKYASSFM [AVPR2_Y124_M123K_YF]	0.467	0.732	0.894	0.564	0.992	0.613	0.635	0.516	1.15	0.341	0.642	0.431	0.774	0.772	0.626	0.413
QNTGHYSSDNT [TMEFF2_Y361]	0.347	0.506	0.581	0.545	0.532	0.461	0.704	0.474	0.49	0.442	0.544	0.43	0.443	0.446	0.691	0.544
QNTGHYSSENT [TMEFF2_Y361_D364E]	0.467	0.735	0.95	0.903	1.33	0.66	0.588	0.828	0.561	0.389	0.908	0.868	0.575	0.814	0.548	0.468
QPGTDYKIFRF [FN1_Y1970_L1974R_YF]	0.497	0.635	0.644	0.529	2.04	1.77	1.89	1.22	1.74	0.567	1.17	0.756	1.64	0.754	1.28	1.18
QPRDIYHQTWA [GBA_Y244_G241R]	0.709	0.942	0.945	1.77	0.913	0.821	1.99	2.91	1.15	0.627	3.54	0.526	0.787	0.574	1.38	2.72
QQIYTYDSGIH [JUP_Y22_T19I]	0.666	0.834	0.922	10.3	0.923	1.02	6.68	1.86	0.91	1.98	11.1	4.16	0.788	3.57	1.84	4.94
QQLVAYFSKHA [SRC_Y232_YF]	0.644	0.699	1.57	0.53	1.15	0.972	0.744	0.621	0.806	0.547	0.573	0.48	0.936	0.664	0.813	0.652
QRHYVYYYSYL [PTEN_Y176_R173H]	0.698	1.12	0.688	3.5	1.91	1.79	5.11	7.4	1.84	2.16	8.74	1.29	5.22	3.51	6.74	3.31
QRIYQYIQSRF [DYRK1B_Y273]	2.05	1.58	1.26	1.68	2.48	3.1	3.17	1.25	3.62	1.63	6.41	5.21	1.82	6.1	2	3.87
QRRLVYFEGGA [RYR1_Y245_YF]	0.727	0.944	1.58	1.02	1.39	3.89	0.376	1.34	0.912	0.995	0.531	1.33	0.825	1.18	0.902	1.13
QSGGQYSSQGL [TNNI3K_Y788_A785G]	0.577	0.446	0.787	0.488	0.779	0.655	0.495	0.486	0.676	0.434	0.4	0.401	0.835	0.506	0.854	0.72

Sequence	SH2 binding enrichment (c-Src SH2)	SH2 binding enrichment (SHP2-C SH2)	SH2 binding enrichment (Grb2 SH2)	phosphorylation enrichment (Fyn)	phosphorylation enrichment (Fes)	phosphorylation enrichment (AncSZ)	phosphorylation enrichment (c-Src)	phosphorylation enrichment (FGFR1)	phosphorylation enrichment (c-Abl (mouse))	phosphorylation enrichment (EPHB2)	phosphorylation enrichment (MERTK)	phosphorylation enrichment (Fer (mouse))	phosphorylation enrichment (Jak2)	phosphorylation enrichment (EPHB1)	phosphorylation enrichment (FGFR3)	phosphorylation enrichment (Hck)
QSSALYEDCFL [ASS1_Y83_R86C_YF]	0.831	0.794	1.13	3.02	2.83	1.92	4.69	0.852	1.15	7.25	4.12	16.4	1.96	10.4	0.785	2.28
QTSSNYDDAMQ [ZNF281_Y531_I527T]	0.794	0.716	0.823	0.756	1.02	1.06	0.44	0.86	0.476	1.14	0.58	0.741	0.884	0.825	0.975	0.57
QWRTKYETDAI [MYH7_Y1375]	0.542	0.521	0.849	0.643	1.36	0.971	0.528	0.4	1.04	0.432	0.545	0.543	1.74	0.663	0.624	0.355
RAMPVYKEAEH [TP63_Y231_K233E]	0.508	0.58	0.98	0.511	1.01	1.02	0.563	0.763	0.665	0.67	0.503	0.602	0.832	0.561	0.663	0.664
RASSVYTRSTG [CCR5_Y339]	0.472	0.489	0.809	0.608	1.5	0.651	0.875	0.48	0.721	0.552	1.21	0.552	0.655	0.591	0.47	0.741
RAWPPYTVAAD [ANKZF1_Y572_R569W]	0.556	0.697	1.08	0.571	1.11	0.884	0.618	0.573	0.737	0.517	0.475	0.631	0.683	0.678	0.589	0.597
RCQDLYSARDL [SART1_Y249_R245C]	0.391	0.605	0.825	4.61	1.76	1.95	6.42	0.876	1.41	1.06	4.7	2.59	1.97	1.63	1.22	9.83
RDWSHYFKIIE [KRT18_Y129]	0.479	0.436	0.776	0.793	1.72	1.46	0.705	0.687	0.823	1.08	0.296	0.412	1.35	0.824	0.997	0.57
REATAYLHGRL [AGXT_Y297_A295T]	0.483	0.571	0.794	0.595	0.793	0.665	0.521	0.534	0.63	0.662	0.374	0.615	0.871	0.539	0.533	0.488
REEKNDKLKET [BCLAF1_Y459_Y459D]	0.552	0.747	1.16	0.833	1.11	1.32	0.356	0.868	0.596	0.606	0.657	0.441	0.685	0.773	0.908	0.788
REHTVYWEPRK [MAGEA4_Y240_G241W]	0.724	1.39	1.08	1.39	0.831	1.1	1.85	2.31	8.8	1.19	3.77	0.607	0.888	4.33	2.42	5.92
RELGKYGLQAF [ALDH2_Y497_E496K_YF]	0.438	0.503	0.834	0.526	0.926	1	0.491	0.578	0.786	0.577	0.612	0.537	0.774	0.489	0.582	0.584
RETPLYKACER [ASB2_Y162]	0.855	1.27	1.42	0.457	1.13	0.777	0.568	0.457	1.02	0.573	0.527	0.504	0.632	0.441	0.759	0.577
RFLRGYEQDAF [HLA-A_Y137_R138E_YF]	0.765	0.746	0.894	0.636	1.21	0.935	0.533	0.466	0.778	0.555	0.536	0.51	1.36	0.498	0.586	0.629
RFLRGYHQDAF [HLA-A_Y137_R138H_YF]	0.53	0.614	0.935	0.569	0.886	1.66	0.81	0.578	1.33	0.622	0.645	0.569	0.815	0.591	0.628	0.553
RFVVLYDAELT [ERCC4_Y581_YF]	0.837	1.31	1.61	0.657	1.9	1.58	0.807	0.841	0.876	1.15	0.979	0.672	1.72	1.38	0.763	0.91
